{
  "source": "patent US20220177596A1",
  "about": "(Bristol-Myers Squibb, published 2022)",
  "data": [
    {"biological_target": "T1, human-CD40 monomer (human, UniProt P25942 21-193, limits assumed)", "T1 construct": "also called hCD40-monomer; human-CD40-monomer protein", "T1 sequence (P25942 21-193 limits assumed)": "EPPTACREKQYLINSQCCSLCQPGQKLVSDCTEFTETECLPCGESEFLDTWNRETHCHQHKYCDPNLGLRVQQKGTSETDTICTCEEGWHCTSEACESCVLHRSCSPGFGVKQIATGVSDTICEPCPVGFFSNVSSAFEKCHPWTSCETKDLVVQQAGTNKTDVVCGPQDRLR", "assay": "SPR 2 pt screen, Ab on protein A", "method": "The VH sequences were formatted in the context of an IgG1.3f isotype. The Vκ sequences were formatted as a full light chain with a common CL sequence. All 55 combinations of these humanized HC and LC constructs, as well as the chimeric Y1238 molecule were expressed as 3 ml supernatants for binding analysis by SPR. Each of the 56 supernatants, as well as a purified Y1238-chimeric IgG1 antibody, was captured on a protein A sensor chip and tested for binding to two concentrations (i.e., 200 nM and 1000 nM) of hCD40-monomer using BIAcore™ SPR in a screening assay. All antibodies, except for those containing hz-HC3, captured at high levels (>300 RU) using a 100-fold dilution of the expression supernatant, indicating a high antibody titer in the supernatant except for the hz-HC3 samples. The kinetic data for the two concentrations of hCD40-monomer were fit to a 1:1 Langmuir model, to yield estimates of the kinetic and affinity values for these interactions, and for comparison of the different molecules. […] Also, for a given heavy chain, the antibodies with light chains hz-LC1 or hz-LC2 had higher CD40 affinity than those with hz-LC3, hz-LC4 or hz-LC5.", "units": {"Kd": "nM", "koff": "s⁻¹", "kon": "M⁻¹ s⁻¹"}, "values": [
      {"binder": "humanized Y1238 hz24 (hz-HC5 / hz-LC4), IgG1.3f (antibody, V domains shown, IgG1.3f heavy constant, common CL; expression supernatant; also called Sup 24) VH: QVQLVQSGAEVKKPGASVKVSCKASGYAFTNYLIEWVRQRPGQGLEWMGVINPGSGGTNYNEKFKGRVTMTADKSISTAYMELSRLRSDDTAVYYCARSQLGRRFDYWGQGTLVTVSS VL: DIQMTQSPSSLSASVGDRVTITCKASQDVRTGVAWYQQKPGQSPKLLIYSASYRNTGVPSRFSGSRSGTDFTFTISSLQAEDIAVYYCQQHYSPPYTFGGGTKVEIK", "Kd": 7.4, "koff": 0.00032, "kon": 43000},
      {"binder": "humanized Y1238 hz30 (hz-HC6 / hz-LC5), IgG1.3f (antibody, V domains shown, IgG1.3f heavy constant, common CL; expression supernatant; also called Sup 30) VH: QVQLVQSGAEVKKPGASVKVSCKASGYAFTNYLIEWVRQRPGQGLEWMGVINPGSGGTNYNEKFKGRVTLTADKSISTAYMELSRLRSDDTAVYYCARSQLGRRFDYWGQGTLVTVSS VL: DIQMTQSPSSLSASVGDRVTITCKASQDVRTGVAWYQQKPGQAPKLLIYSASYRNTGVPSRFSGSRSGTDFTFTISSLQPEDIAVYYCQQHYSPPYTFGGGTKVEIK", "Kd": 7.7, "koff": 0.00033, "kon": 42000},
      {"binder": "humanized Y1238 hz27 (hz-HC6 / hz-LC2), IgG1.3f (antibody, V domains shown, IgG1.3f heavy constant, common CL; expression supernatant; also called Sup 27) VH: QVQLVQSGAEVKKPGASVKVSCKASGYAFTNYLIEWVRQRPGQGLEWMGVINPGSGGTNYNEKFKGRVTLTADKSISTAYMELSRLRSDDTAVYYCARSQLGRRFDYWGQGTLVTVSS VL: DIQMTQSPSSLSASVGDRVTITCKASQDVRTGVAWYQQKPGKAPKLLIYSASYRNTGVPSRFSGSRSGTDFTFTISSLQPEDIATYYCQQHYSPPYTFGGGTKVEIK", "Kd": 3.3, "koff": 0.00013, "kon": 40000},
      {"binder": "humanized Y1238 hz33 (hz-HC7 / hz-LC3), IgG1.3f (antibody, V domains shown, IgG1.3f heavy constant, common CL; expression supernatant; also called Sup 33) VH: QVQLVQSGAEVVKPGASVKVSCKASGYAFTNYLIEWVRQRPGQGLEWMGVINPGSGGTNYNEKFKGRVTMTADKSSSTAYMQLSRLRSDDTAVYFCARSQLGRRFDYWGQGTLVTVSS VL: DIQMTQSPSSLSASVGDRVTITCKASQDVRTGVAWYQQKPGQSPKLLIYSASYRNTGVPSRFSGSRSGTDFTFTISSLQPEDIAVYYCQQHYSPPYTFGGGTKVEIK", "Kd": 8.7, "koff": 0.00035, "kon": 40000},
      {"binder": "humanized Y1238 hz31 (hz-HC7 / hz-LC1), IgG1.3f (antibody, V domains shown, IgG1.3f heavy constant, common CL; expression supernatant; also called Sup 31) VH: QVQLVQSGAEVVKPGASVKVSCKASGYAFTNYLIEWVRQRPGQGLEWMGVINPGSGGTNYNEKFKGRVTMTADKSSSTAYMQLSRLRSDDTAVYFCARSQLGRRFDYWGQGTLVTVSS VL: DIQMTQSPSSLSASVGDRVTITCKASQDVRTGVAWYQQKPGKAPKLLIYSASYRNTGVPSRFSGSGSGTDFTFTISSLQPEDIATYYCQQHYSPPYTFGGGTKVEIK", "Kd": 3, "koff": 0.00012, "kon": 39000},
      {"binder": "humanized Y1238 hz37 (hz-HC8 / hz-LC2), IgG1.3f (antibody, V domains shown, IgG1.3f heavy constant, common CL; expression supernatant; also called Sup 37) VH: QVQLVQSGAEVVKPGASVKVSCKASGYAFTNYLIEWVRQRPGQGLEWMGVINPGSGGTNYNEKFKGRVTLTADKSSSTAYMQLSRLRSDDTAVYFCARSQLGRRFDYWGQGTLVTVSS VL: DIQMTQSPSSLSASVGDRVTITCKASQDVRTGVAWYQQKPGKAPKLLIYSASYRNTGVPSRFSGSRSGTDFTFTISSLQPEDIATYYCQQHYSPPYTFGGGTKVEIK", "Kd": 2.8, "koff": 0.00011, "kon": 37000},
      {"binder": "humanized Y1238 hz32 (hz-HC7 / hz-LC2), IgG1.3f (antibody, V domains shown, IgG1.3f heavy constant, common CL; expression supernatant; also called Sup 32) VH: QVQLVQSGAEVVKPGASVKVSCKASGYAFTNYLIEWVRQRPGQGLEWMGVINPGSGGTNYNEKFKGRVTMTADKSSSTAYMQLSRLRSDDTAVYFCARSQLGRRFDYWGQGTLVTVSS VL: DIQMTQSPSSLSASVGDRVTITCKASQDVRTGVAWYQQKPGKAPKLLIYSASYRNTGVPSRFSGSRSGTDFTFTISSLQPEDIATYYCQQHYSPPYTFGGGTKVEIK", "Kd": 4.5, "koff": 0.00017, "kon": 37000},
      {"binder": "humanized Y1238 hz35 (hz-HC7 / hz-LC5), IgG1.3f (antibody, V domains shown, IgG1.3f heavy constant, common CL; expression supernatant; also called Sup 35) VH: QVQLVQSGAEVVKPGASVKVSCKASGYAFTNYLIEWVRQRPGQGLEWMGVINPGSGGTNYNEKFKGRVTMTADKSSSTAYMQLSRLRSDDTAVYFCARSQLGRRFDYWGQGTLVTVSS VL: DIQMTQSPSSLSASVGDRVTITCKASQDVRTGVAWYQQKPGQAPKLLIYSASYRNTGVPSRFSGSRSGTDFTFTISSLQPEDIAVYYCQQHYSPPYTFGGGTKVEIK", "Kd": 9.2, "koff": 0.00037, "kon": 40000},
      {"binder": "humanized Y1238 hz34 (hz-HC7 / hz-LC4), IgG1.3f (antibody, V domains shown, IgG1.3f heavy constant, common CL; expression supernatant; also called Sup 34) VH: QVQLVQSGAEVVKPGASVKVSCKASGYAFTNYLIEWVRQRPGQGLEWMGVINPGSGGTNYNEKFKGRVTMTADKSSSTAYMQLSRLRSDDTAVYFCARSQLGRRFDYWGQGTLVTVSS VL: DIQMTQSPSSLSASVGDRVTITCKASQDVRTGVAWYQQKPGQSPKLLIYSASYRNTGVPSRFSGSRSGTDFTFTISSLQAEDIAVYYCQQHYSPPYTFGGGTKVEIK", "Kd": 7.1, "koff": 0.00028, "kon": 40000},
      {"binder": "humanized Y1238 hz28 (hz-HC6 / hz-LC3), IgG1.3f (antibody, V domains shown, IgG1.3f heavy constant, common CL; expression supernatant; also called Sup 28) VH: QVQLVQSGAEVKKPGASVKVSCKASGYAFTNYLIEWVRQRPGQGLEWMGVINPGSGGTNYNEKFKGRVTLTADKSISTAYMELSRLRSDDTAVYYCARSQLGRRFDYWGQGTLVTVSS VL: DIQMTQSPSSLSASVGDRVTITCKASQDVRTGVAWYQQKPGQSPKLLIYSASYRNTGVPSRFSGSRSGTDFTFTISSLQPEDIAVYYCQQHYSPPYTFGGGTKVEIK", "Kd": 5.6, "koff": 0.00024, "kon": 42000},
      {"binder": "humanized Y1238 hz26 (hz-HC6 / hz-LC1), IgG1.3f (antibody, V domains shown, IgG1.3f heavy constant, common CL; expression supernatant; also called Sup 26) VH: QVQLVQSGAEVKKPGASVKVSCKASGYAFTNYLIEWVRQRPGQGLEWMGVINPGSGGTNYNEKFKGRVTLTADKSISTAYMELSRLRSDDTAVYYCARSQLGRRFDYWGQGTLVTVSS VL: DIQMTQSPSSLSASVGDRVTITCKASQDVRTGVAWYQQKPGKAPKLLIYSASYRNTGVPSRFSGSGSGTDFTFTISSLQPEDIATYYCQQHYSPPYTFGGGTKVEIK", "Kd": 2.9, "koff": 0.00012, "kon": 41000},
      {"binder": "humanized Y1238 hz38 (hz-HC8 / hz-LC3), IgG1.3f (antibody, V domains shown, IgG1.3f heavy constant, common CL; expression supernatant; also called Sup 38) VH: QVQLVQSGAEVVKPGASVKVSCKASGYAFTNYLIEWVRQRPGQGLEWMGVINPGSGGTNYNEKFKGRVTLTADKSSSTAYMQLSRLRSDDTAVYFCARSQLGRRFDYWGQGTLVTVSS VL: DIQMTQSPSSLSASVGDRVTITCKASQDVRTGVAWYQQKPGQSPKLLIYSASYRNTGVPSRFSGSRSGTDFTFTISSLQPEDIAVYYCQQHYSPPYTFGGGTKVEIK", "Kd": 8.2, "koff": 0.00032, "kon": 39000},
      {"binder": "humanized Y1238 hz29 (hz-HC6 / hz-LC4), IgG1.3f (antibody, V domains shown, IgG1.3f heavy constant, common CL; expression supernatant; also called Sup 29) VH: QVQLVQSGAEVKKPGASVKVSCKASGYAFTNYLIEWVRQRPGQGLEWMGVINPGSGGTNYNEKFKGRVTLTADKSISTAYMELSRLRSDDTAVYYCARSQLGRRFDYWGQGTLVTVSS VL: DIQMTQSPSSLSASVGDRVTITCKASQDVRTGVAWYQQKPGQSPKLLIYSASYRNTGVPSRFSGSRSGTDFTFTISSLQAEDIAVYYCQQHYSPPYTFGGGTKVEIK", "Kd": 6.5, "koff": 0.00028, "kon": 42000},
      {"binder": "humanized Y1238 hz36 (hz-HC8 / hz-LC1), IgG1.3f (antibody, V domains shown, IgG1.3f heavy constant, common CL; expression supernatant; also called Sup 36) VH: QVQLVQSGAEVVKPGASVKVSCKASGYAFTNYLIEWVRQRPGQGLEWMGVINPGSGGTNYNEKFKGRVTLTADKSSSTAYMQLSRLRSDDTAVYFCARSQLGRRFDYWGQGTLVTVSS VL: DIQMTQSPSSLSASVGDRVTITCKASQDVRTGVAWYQQKPGKAPKLLIYSASYRNTGVPSRFSGSGSGTDFTFTISSLQPEDIATYYCQQHYSPPYTFGGGTKVEIK", "Kd": 3.7, "koff": 0.00014, "kon": 39000}
    ]}
  ]
}
